Test results from US9631002B2, “Methods and compositions for producing active vitamin K-dependent proteins” (The University of North Carolina at Chapel Hill, priority 2010, dated 2017).
“Also recorded” adds a separate entry of the source.

Assays:
[1] = tested on: FIXgla-PC carboxylation in HEK 293 cells; format: cell-based, human; details: 11 μM vitamin K or 5 μM KO, HEK293
[2] = tested on: carboxylation of FIXgla-PC reporter protein in HEK293 cells (reduction of KO to vitamin K); assay: Cell-based VKOR activity assay: recombinant VKOR/VKORH expressed in FIXgla-PC/HEK293 cells with KO and warfarin, carboxylated reporter by ELISA; set-up: species or system human; details: for ability of human VKOR with replaced residues 122-139 to use KO to carboxylate the reporter / support of carboxylation of the reporter protein with KO as substrate: 5 μM KO; for ability of human VKOR with replaced residues 122-139 to use KO to carboxylate the reporter: 2 μM warfarin, 48 h, HEK293 (FIG. 11C); for Relative activity: Human Y139F: VKOR of the organism compared to human Y139F VKOR, cell-based carboxylation; for support of carboxylation of the reporter protein with KO as substrate: 4 μM warfarin, 48 h (FIG. 15B); for carboxylation activity of modified human VKOR: FIGS. 23, 33
[3] = tested on: carboxylation of FIXgla-PC reporter protein in AV12 cells (reduction of vitamin K to KH2); assay: Cell-based VKOR activity assay in FIXgla-PC/AV12 or FIXgla-PC/VKOR-Y139F/AV12 cells, carboxylated reporter by ELISA; set-up: species or system Syrian golden hamster; details: for ability of human VKOR with replaced residues 122-139 to use vitamin K to carboxylate the reporter: 11 μM K, 2 μM warfarin, 48 h, FIXgla-PC AV-12 (FIG. 11B); for activity in reducing vitamin K to KH2 to support carboxylation: transient expression in FIXgla-PC/VKOR-Y139F/AV12, KO and warfarin (FIG. 19A)

With `CC(=CCC12OC1(C)C(=O)c1ccccc1C2=O)CCCC(C)CCCC(C)CCCC(C)C` (centres unmarked) [KO, Vitamin K1 2,3-epoxide] the “increase in secretion of carboxylated reporter protein compared to no additions” value [1] was “approximately 25 fold”.

B1: hVKOR DsbB: human VKOR with residues 122-139 replaced by bacterial DsbB 33-50, SEQ ID NO:32 (protein)
chain: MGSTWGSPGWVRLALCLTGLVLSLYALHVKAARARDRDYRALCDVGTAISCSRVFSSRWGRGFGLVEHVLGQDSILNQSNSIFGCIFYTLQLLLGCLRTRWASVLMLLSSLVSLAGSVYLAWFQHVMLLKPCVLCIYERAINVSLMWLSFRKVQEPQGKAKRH
modifications: Human VKOR with amino acids 122-139 substituted with amino acids 33-50 of DsbB enzyme (RefSeq accession no. ZP_03067529)
B1 was tested, and the “ability of human VKOR with replaced residues 122-139 to use KO to carboxylate the reporter” value [2] was “only the human VKOR substituted with the M. tuberculosis domain functions as a VKOR” and the “ability of human VKOR with replaced residues 122-139 to use vitamin K to carboxylate the reporter” value [3] was “can utilize vitamin K to produce carboxylated reporter protein”.

B2: hVKOR Arabidopsis: human VKOR with residues 122-139 replaced by Arabidopsis VKOR 185-202, SEQ ID NO:30 (protein)
chain: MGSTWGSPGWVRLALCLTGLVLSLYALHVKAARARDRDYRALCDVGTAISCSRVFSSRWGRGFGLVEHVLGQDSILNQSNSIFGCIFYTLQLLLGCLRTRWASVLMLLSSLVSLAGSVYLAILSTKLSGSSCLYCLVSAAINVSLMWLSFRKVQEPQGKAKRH
modifications: Human VKOR with amino acids 122-139 substituted with amino acids 185-202 of A. thaliana VKOR (RefSeq accession no. NP_567988)
With B2 the “ability of human VKOR with replaced residues 122-139 to use KO to carboxylate the reporter” value [2] was “only the human VKOR substituted with the M. tuberculosis domain functions as a VKOR” and the “ability of human VKOR with replaced residues 122-139 to use vitamin K to carboxylate the reporter” value [3] was “can utilize vitamin K to produce carboxylated reporter protein”.

B3: Amphioxus: Amphioxus VKOR, SEQ ID NO:11, Y144F (protein, listed as Branchiostoma floridae)
chain: MAAGRSFRLPIWEILSRCMLCTAGLVLSGYAFYVETSKEADHSYTAMCDVSESVSCSKVFTSRFGRGFGLVEPILGADSPLNLPNSIFGLAFYIMQLCLGVVPGMSVSIVLLATSVLSCLGCVYLAYILYFILQDACIVCISTFVVNTFMLIVNIKRVLLQRKAILKKQQ
With B3 the “Relative activity: Human Y139F” value [2] was “Yes, greater”.

B4: Trichoplax: Trichoplax VKOR XM_002107720.1, SEQ ID NO:15 (protein, listed as Trichoplax adhaerens)
chain: MAAGRSFRLPIWEILSRCMLCTAGLVLSGYAFYVETSKEADHSYTAMCDVSESVSCSKVFTSRFGRGFGLVEPILGADSPLNLPNSIFGLAFYIMQLCLGVVPGMSVSIVLLATSVLSCLGCVYLAYILYFILQDACIVCISTYVVNTLMLVVNIKRVLLQRKALLKKQQ
B4 was tested, and the “Relative activity: Human Y139F” value [2] was “No”.

B5: SY-VKORH: Synechococcus sp. VKORH, SEQ ID NO:21 (protein)
chain: MASYLKLKAQEETWLQRHSRLILAILAGLGSLLTAYLTYTKLTEQPAAFCTGDGGCDLVLSSRWAEFLGIPTAAVGLLGFLGVLALAVLPDGLPLVKRWRWPALFGLVSAMTAFEMYMLYLMVAVLRQFCMYCTTAIILVAGLGLVTVLGHRWLDGGKLAFSYILVAFLTLVTTIGVYANQVPPPSPLAVGLAAHLRQIGGTMYGAYWCPHCQDQKELFGAAFDQVPYVECSPNGPGTPQAQECTEAGITSYPTWIINGRTYTGVRSLEALAVASGYPLEEGR
modifications: Synechococcus sp. JA-2-3B′a(2-13)
With B5 the “support of carboxylation of the reporter protein with KO as substrate” value (shortened to “support of carboxylation … as substrate”) [2] was “only MT-VKORH supported carboxylation” and the “activity in reducing vitamin K to KH2 to support carboxylation” value (“activity in reducing vitamin K to KH2” for short) [3] was “no significant activity”.

B6: SA-VKORH: Salinispora tropica CNB-440 VKORH, SEQ ID NO:24 (protein)
chain: MTTTANRPVTTPAERHFLAAVTAWVLTIGGAVGLLAAAALTVEKINLLADPGYVPTCSINPILSCGSVMNTPQAAVFGFPNPLLGIAGFAVVTTLGVTLLATGHLPRWMWLGLQGGVTFGVVFVHWLIYQSLYVIGALCPYCMVVWAVTIPIFLYTTLQTLRDNTTALPRALRRVTERVARYHSLVLVVWAAFVVVVILHRFWDYWSTLG
modifications: Salinispora tropica CNB-440
B6 was tested, and the “activity relative to MT-VKORH” value ([2]; KO as substrate, FIXgla-PC/HEK293 (FIG. 21B)) was 30% and the “ability to reduce vitamin K to KH2 compared with MT-VKORH” value ([3]; FIXgla-PC/VKOR-Y139F/AV12 (FIG. 21C)) was “higher than the KO to vitamin K reduction”.

B7: RO-VKORH: Roseiflexus sp. RS-1 VKORH, SEQ ID NO:20 (protein)
chain: MRRFLLTLIVSCMLTLSLSVASAAATVRAVLFYSPRCGHCHMVISEHLPPLQQRYGDQLQILMIDVDQAQGAALYREAIAVYAIPEARRGVPTMIISDTVLVGSVEIPQRLPGLIETLLARGGSDWPPIPGLADLLATVPTSAPAPPTLPPATAETPPFLRDLPANALAVVVLAGMLLTVMWAGITWSRPAQPPTRWRDRSIPLLAIGGMAVAAYLTFIETTGAPALCGPVGDCNAVQQSEFARLFGTIPVGAAGVAGYGAILIVWIVAHLLPGTSGERAALLLPALALIGTLFSIYLTFLEPFVIGATCLWCLTSAVIMTGLLWLSMPYRQRSTSRGYARR
modifications: Roseiflexus sp. RS-1
With B7 the “support of carboxylation … as substrate” value [2] was “only MT-VKORH supported carboxylation” and the “activity in reducing vitamin K to KH2” value [3] was “significant activity”.

B8: AR-VKORH: Arabidopsis VKORH, NP_567988.1, SEQ ID NO:19 (protein, listed as Arabidopsis thaliana)
chain: MMARFVSVSSCQFHFGFREVSPPSVTSYPRRFEVSDRRFPAIPIKCSSSEPENGEDSAPSLSSSSSSSTSEVSTSNSSTYNWYTGIGGIGMLDTAYLTYLKVTGSDAFCPIGGGTCGDVLNSDYAVVFGVPLPVIGFVMYGVVTALSAELGEGNLPFGISKSNGRFALFGITTAMASASAYFLYILSTKLSGSSCLYCLVSAFLSFSLFFLSVKDVKLQEIQQVVGLQICLAIIVVASLTASYSTAQPIPSRSGDIELPYFRTEISSSSSPYAIALAKHLNSIGAKMYGAFWCSHCLEQKEMFGREAAKELNYVECFPDGYKKGTKILKACADAAIEGFPTWIINDKVLS
For B8, the “support of carboxylation … as substrate” value [2] was “only MT-VKORH supported carboxylation” and the “activity in reducing vitamin K to KH2” value [3] was “no significant activity”.

B9: Human VKOR with amino acids 44-50 substituted with amino acids DYKDDDDK (Flag tag): human VKOR cysteine loop 44-50 replaced with FLAG tag, SEQ ID NO:34 (protein)
chain: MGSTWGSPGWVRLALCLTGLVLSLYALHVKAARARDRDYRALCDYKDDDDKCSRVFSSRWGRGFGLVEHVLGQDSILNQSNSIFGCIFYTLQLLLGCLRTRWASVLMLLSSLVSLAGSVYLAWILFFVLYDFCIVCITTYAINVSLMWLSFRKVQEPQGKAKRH
modifications: Human VKOR with amino acids 44-50 substituted with amino acids DYKDDDDK (Flag tag)
For B9, the “carboxylation activity of modified human VKOR” value [2] was “increased activity”.

B10: Takifugu: Takifugu VKOR NP_001027838, SEQ ID NO:7, Y138F (protein)
chain: MAIPTWERKVRIFLCVFGLLLSVYALHVELSRERNPDYRAMCDLGESVSCSKVFSSRWGRGFGLVQYFVDKDSPLNQPNSVLGIIFYTLQMCLGLSLSRKAALFLVFSSWVSVAGSLYLASILAFVLGDFCMVCVSTFLVNFVLLFTNLKRRRAIEGLKEKSG
modifications: Takifugu rubripes
B10 was tested, and the “Relative activity: Human Y139F” value [2] was “Yes, greater”.

B11: Xenopus tropicalis: Xenopus VKOR NP_001006928, SEQ ID NO:8, Y138F (protein)
chain: MAVPGWERAVRLLLCGVGIALSVYAYHVETSRERDANYTALCDINPSISCSKVFTSRWGRGFGLVEQILGRQSFLNQPNSVFGILFYGLQVLLGFSGSVGAAAALLGTSLVSIAGSLYLAYILFYVLEDFCVICVTTFALNFCLLLLNLKRLASLRAPPKKQKNKRKKN
modifications: Xenopus (Silurana) tropicalis
With B11 the “Relative activity: Human Y139F” value [2] was “Yes, greater”.

B12: VKOR-CM: human VKOR with R37G, R35G, R33G, K30L, G9R, S7R and G6R mutations, SEQ ID NO:35 (protein)
chain: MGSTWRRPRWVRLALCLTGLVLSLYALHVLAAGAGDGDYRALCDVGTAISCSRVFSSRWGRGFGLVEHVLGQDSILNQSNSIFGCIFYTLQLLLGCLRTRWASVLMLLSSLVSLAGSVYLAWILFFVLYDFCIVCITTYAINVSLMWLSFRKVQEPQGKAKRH
modifications: Human VKOR comprising an R37G mutation, an R35G mutation, an R33G mutation, a K30L mutation, a G9R mutation, an S7R mutation and a G6R mutation
B12 was tested, and the “ability to carboxylate vitamin K dependent reporter protein relative to wild type / control VKOR” value ([2]; charge-mutated human VKOR (FIG. 32)) was “approximately fourfold; also recorded: about four times more active”.

B13: V45N: human VKOR comprising a V45N substitution introducing an additional glycosylation site, SEQ ID NO:25 (protein)
chain: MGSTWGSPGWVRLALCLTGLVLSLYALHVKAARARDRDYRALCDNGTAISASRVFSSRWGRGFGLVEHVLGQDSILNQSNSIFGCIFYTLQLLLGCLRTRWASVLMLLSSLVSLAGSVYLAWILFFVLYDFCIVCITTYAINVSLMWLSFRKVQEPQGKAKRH
modifications: Human VKOR with V45N mutation
For B13, the “carboxylation activity of modified human VKOR” value [2] was “increased carboxylation activity”.
